The results in this text go back to publication PMC3322289.

For experiment [1], the target named is Angiotensin II, P01019. Description: radioligand.
Experiment [2] addresses Angiotensin II, P01019. Description: radioligand. This is another data set of the same source.

Read-outs that look alike come from different tables or passages of the source.

Sequence of Angiotensin II, P01019 (P01019 whole entry, looked up): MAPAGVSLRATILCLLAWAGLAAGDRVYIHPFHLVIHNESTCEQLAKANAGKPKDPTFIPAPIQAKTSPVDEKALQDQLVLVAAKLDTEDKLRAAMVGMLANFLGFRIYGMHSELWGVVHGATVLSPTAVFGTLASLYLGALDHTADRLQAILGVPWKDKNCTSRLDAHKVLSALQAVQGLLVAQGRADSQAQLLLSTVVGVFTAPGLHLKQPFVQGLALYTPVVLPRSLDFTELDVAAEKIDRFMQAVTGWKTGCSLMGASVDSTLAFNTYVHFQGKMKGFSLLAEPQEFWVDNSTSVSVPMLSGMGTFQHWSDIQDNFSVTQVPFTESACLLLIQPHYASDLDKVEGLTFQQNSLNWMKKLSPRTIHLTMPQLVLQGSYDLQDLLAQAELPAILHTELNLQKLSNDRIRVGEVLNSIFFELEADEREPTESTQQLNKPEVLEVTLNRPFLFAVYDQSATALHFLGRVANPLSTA

B1: Angiotensin II type 1 receptor (AT1R), P25095 (protein)
chain: MALNSSAEDGIKRIQDDCPKAGRHSYIFVMIPTLYSIIFVVGIFGNSLVVIVIYFYMKLKTVASVFLLNLALADLCFLLTLPLWAVYTAMEYRWPFGNHLCKIASASVSFNLYASVFLLTCLSIDRYLAIVHPMKSRLRRTMLVAKVTCIIIWLMAGLASLPAVIHRNVYFIENTNITVCAFHYESRNSTLPIGLGLTKNILGFLFPFLIILTSYTLIWKALKKAYEIQKNKPRNDDIFRIIMAIVLFFFFSWVPHQIFTFLDVLIQLGVIHDCKISDIVDTAMPITICIAYFNNCLNPLFYGFLGKKFKKYFLQLLKYIPPKAKSHSSLSTKMSTLSYRPSDNMSSSAKKPASCFEVE
By Kd is commonly meant the constant that tells how readily two partners part at equilibrium. Take B1: the Kd in the experiment with Angiotensin II, P01019 [1] was 3.57 nM; in the experiment with Angiotensin II, P01019 [2] it was 3.32 nM.
